The source of these data is the Immune Epitope Database (IEDB).

One test addresses HLA-A*02:01. The experiment in a line: IEDB peptide-MHC binding, cellular MHC/competitive/fluorescence; ≥ and ≤ were set here for values at or beyond the usual limits of such assays.
A further test has as its target HLA-A*02:02. The experiment in a line: IEDB peptide-MHC binding, purified MHC/competitive/radioactivity; ≥ and ≤ were set here for values at or beyond the usual limits of such assays.
Test [1] deals with HLA-A*68:02. The test is described as above.
In the next test the target is HLA-A*02:03. Described as above.
For a further test, the target named is HLA-A*02:06. The description is as above.
Test [2] has as its target HLA-A*68:02. The experiment in a line: IEDB peptide-MHC binding, cellular MHC/competitive/fluorescence; ≥ and ≤ were set here for values at or beyond the usual limits of such assays. Conditions: source organism: Vaccinia virus WR.
Setting [3] is: source organism: Vaccinia virus WR.
Where [4] appears, read: source organism: Mammarenavirus brazilense.
Setting [5] is: source organism: Mammarenavirus choriomeningitidis.
The mark [6] stands for this setting: source organism: Influenza A virus.

The term IC50 denotes the concentration that inhibits the measured activity by half. As for IVFGIYKDNL, the IC50 with HLA-A*02:01 (setting [3]) was 5460 nM; with HLA-A*02:02 (setting [3]), 187 nM; with HLA-A*68:02 [1] (setting [3]), 628 nM; with HLA-A*02:03 (setting [3]), 792 nM; with HLA-A*02:06 (setting [3]), 48 nM.
Taken in the same sequence, the figures for YIESKAKQL were 9620 nM, 144 nM, 1340 nM, 439 nM and 2990 nM.
Turning to LSNCVHPAV, the IC50 with HLA-A*02:01 (setting [4]) is 12200 nM; with HLA-A*02:02 (setting [4]), 427 nM; with HLA-A*68:02 [1] (setting [4]), 682 nM; with HLA-A*02:03 (setting [4]) it was 1100 nM; in the test with HLA-A*02:06 (setting [4]) it was 461 nM.
For FVNFNSVKNL, the 50% inhibitory concentration (IC50) with HLA-A*02:01 (setting [3]) stood at 8720 nM; with HLA-A*02:02 (setting [3]), 2020 nM; with HLA-A*68:02 [1] (setting [3]) it was 121 nM; with HLA-A*02:03 (setting [3]) it was 318 nM; with HLA-A*02:06 (setting [3]), 2200 nM.
KVDDTFYYV: the IC50 in the test with HLA-A*68:02 [2] stood at 45500 nM.
For SIAMLKSKNI, the concentration for half-maximal inhibition (IC50) stood at 14000 nM with HLA-A*02:01 (setting [3]); 1090 nM with HLA-A*02:02 (setting [3]); 2100 nM in the test with HLA-A*68:02 [1] (setting [3]); 55 nM with HLA-A*02:03 (setting [3]); 259 nM with HLA-A*02:06 (setting [3]).
In the case of PLHIVCSKT, the IC50 turned out to be 7940 nM with HLA-A*02:01 (setting [3]); 997 nM with HLA-A*02:02 (setting [3]); 1880 nM with HLA-A*68:02 [1] (setting [3]); 2150 nM with HLA-A*02:03 (setting [3]); 3890 nM with HLA-A*02:06 (setting [3]).
On to NITTLLNET, for which the IC50 with HLA-A*02:01 (setting [3]) worked out at 39200 nM; in the test with HLA-A*02:02 (setting [3]), 1300 nM; in the test with HLA-A*68:02 [1] (setting [3]), 1540 nM; with HLA-A*02:03 (setting [3]), 2900 nM; with HLA-A*02:06 (setting [3]), 2310 nM.
Regarding SAVFKDSFL, the IC50 with HLA-A*02:01 (setting [3]) came to 6060 nM; in the test with HLA-A*02:02 (setting [3]), 231 nM; with HLA-A*68:02 [1] (setting [3]), 110 nM; with HLA-A*02:03 (setting [3]) it was 536 nM; with HLA-A*02:06 (setting [3]) it was 1140 nM.
As to ETMYLTMKAI, the concentration for half-maximal inhibition (IC50) with HLA-A*02:01 (setting [3]) is 6580 nM; with HLA-A*02:02 (setting [3]) it was 1320 nM; in the test with HLA-A*68:02 [1] (setting [3]) it was 4 nM; with HLA-A*02:03 (setting [3]), 25 nM; in the test with HLA-A*02:06 (setting [3]), 3580 nM.
In the same order, the values of KTVKNVDII are 8730 nM, 607 nM, 1160 nM, 1790 nM and 698 nM.
Turning to NIKISLNEIL, the IC50 in the test with HLA-A*02:01 (setting [3]) worked out at 9630 nM; in the test with HLA-A*02:02 (setting [3]), 705 nM; in the test with HLA-A*68:02 [1] (setting [3]) it was 1610 nM; with HLA-A*02:03 (setting [3]), 1390 nM; in the test with HLA-A*02:06 (setting [3]), 557 nM.
In the same order, the values of STFNMWREIL are 6000 nM, 3120 nM, 67 nM, 907 nM and 3360 nM.
In the case of LVFNSISARA, the IC50 with HLA-A*02:01 (setting [3]) is 15900 nM; in the test with HLA-A*02:02 (setting [3]) it was 1270 nM; in the test with HLA-A*68:02 [1] (setting [3]), 168 nM; in the test with HLA-A*02:03 (setting [3]), 254 nM; with HLA-A*02:06 (setting [3]), 702 nM.
In the case of TITTFIPISA, the IC50 with HLA-A*02:01 (setting [3]) worked out at 9690 nM; in the test with HLA-A*02:02 (setting [3]) it was 4060 nM; with HLA-A*68:02 [1] (setting [3]), 304 nM; in the test with HLA-A*02:03 (setting [3]) it was 176 nM; with HLA-A*02:06 (setting [3]), 4840 nM.
Taken in the same sequence, the figures for TTNNLLEQL were 40600 nM, 122 nM, 48 nM, 1420 nM and 3040 nM.
Taken in the same sequence, the figures for STAEQLSKYV were 8210 nM, 1060 nM, 28 nM, 1870 nM and 697 nM.
LVAEHRFENM: the IC50 with HLA-A*02:01 (setting [3]) is not below 70000 nM; with HLA-A*02:02 (setting [3]), 2050 nM; in the test with HLA-A*68:02 [1] (setting [3]), 1400 nM; with HLA-A*02:03 (setting [3]), 462 nM; in the test with HLA-A*02:06 (setting [3]) it was 723 nM.
On to LNMFVSDQV, for which the IC50 with HLA-A*02:01 (setting [5]) came to 5760 nM; with HLA-A*02:02 (setting [5]) it was 18 nM; with HLA-A*68:02 [1] (setting [5]), 7 nM; with HLA-A*02:03 (setting [5]) it was 880 nM; with HLA-A*02:06 (setting [5]), 4810 nM.
In the case of LTGTFVTAFI, the concentration for half-maximal inhibition (IC50) came out at 5050 nM with HLA-A*02:01 (setting [3]); 672 nM with HLA-A*02:02 (setting [3]); 109 nM with HLA-A*68:02 [1] (setting [3]); 596 nM with HLA-A*02:03 (setting [3]); 413 nM in the test with HLA-A*02:06 (setting [3]).
On to ATAGLTHMMI, for which the half-maximal inhibitory concentration (IC50) was 12100 nM in the test with HLA-A*02:01 (setting [6]); 636 nM in the test with HLA-A*02:02 (setting [6]); 138 nM with HLA-A*68:02 [1] (setting [6]); 1060 nM in the test with HLA-A*02:03 (setting [6]); 2200 nM with HLA-A*02:06 (setting [6]).
On to SAEVERLMEL, for which the IC50 is 7910 nM in the test with HLA-A*02:01 (setting [3]); 1280 nM with HLA-A*02:02 (setting [3]); 2640 nM with HLA-A*68:02 [1] (setting [3]); 2500 nM with HLA-A*02:03 (setting [3]); 1250 nM with HLA-A*02:06 (setting [3]).
Regarding LVKESMASL, the IC50 in the test with HLA-A*02:01 (setting [3]) amounted to 14300 nM; with HLA-A*02:02 (setting [3]) it was 1120 nM; in the test with HLA-A*68:02 [1] (setting [3]), 2070 nM; in the test with HLA-A*02:03 (setting [3]), 9.5 nM; with HLA-A*02:06 (setting [3]) it was 136 nM.
ILKDPRIASI: the IC50 with HLA-A*02:01 (setting [3]) was 5030 nM; with HLA-A*02:02 (setting [3]) it was 3160 nM; in the test with HLA-A*68:02 [1] (setting [3]), 4520 nM; with HLA-A*02:03 (setting [3]), 1030 nM; with HLA-A*02:06 (setting [3]), 4000 nM.
